US20050154187A1

Experiments:
[1] = target: soluble VEGF receptor KDR (sKDR) (UniProt P35968); test: ELISA, plate-coated sKDR, detection with DHFR-specific mAb
[2] = target: soluble VEGF receptor Flt-1 (sFlt-1) (UniProt P17948); test: ELISA, plate-coated sFlt-1, detection with DHFR-specific mAb

dihydrofolate reductase (DHFR), negative control protein, sequence (P00375 1-186 limits assumed): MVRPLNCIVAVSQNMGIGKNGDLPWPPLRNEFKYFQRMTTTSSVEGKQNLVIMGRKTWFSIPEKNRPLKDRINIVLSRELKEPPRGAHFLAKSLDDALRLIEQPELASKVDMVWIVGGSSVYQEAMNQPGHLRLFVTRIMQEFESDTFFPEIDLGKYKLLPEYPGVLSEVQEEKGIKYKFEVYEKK

- OD492 nm [1]: 0.074 OD492 nm
- OD492 nm [2]: 0.088 OD492 nm
Substance: dihydrofolate reductase (DHFR), negative control protein (from UniProt P00375 1-186) (enzyme)
